The record followed here is patent US20260242447A1.

The assay deals with SARS-CoV-2 spike protein (full length) (SARS-CoV-2) (UniProt P0DTC2). The experiment in a line: ELISA, GRP78-HRP on plate-bound spike protein.

GRP78 (soluble / recombinant protein), P11021 19-654 (other; other documents disagree on this pair), sequence (P11021 19-654 limits assumed): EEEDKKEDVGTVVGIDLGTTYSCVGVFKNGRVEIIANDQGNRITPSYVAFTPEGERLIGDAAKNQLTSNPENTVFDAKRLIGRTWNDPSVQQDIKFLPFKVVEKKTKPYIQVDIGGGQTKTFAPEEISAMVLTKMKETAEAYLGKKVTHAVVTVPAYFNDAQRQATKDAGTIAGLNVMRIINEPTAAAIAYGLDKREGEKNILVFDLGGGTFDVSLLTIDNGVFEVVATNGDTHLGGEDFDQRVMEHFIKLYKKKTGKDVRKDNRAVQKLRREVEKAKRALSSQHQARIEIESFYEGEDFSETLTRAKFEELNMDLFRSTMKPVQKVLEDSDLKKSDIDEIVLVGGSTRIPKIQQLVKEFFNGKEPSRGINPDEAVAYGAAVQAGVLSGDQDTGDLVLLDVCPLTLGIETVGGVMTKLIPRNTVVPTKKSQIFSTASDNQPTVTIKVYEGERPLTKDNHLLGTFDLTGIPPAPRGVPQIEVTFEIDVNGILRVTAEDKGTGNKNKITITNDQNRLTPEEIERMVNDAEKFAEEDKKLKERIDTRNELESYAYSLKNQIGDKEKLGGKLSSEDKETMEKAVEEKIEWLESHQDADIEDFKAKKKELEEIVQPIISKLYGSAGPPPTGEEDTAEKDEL

Regarding “GRP78 (soluble / recombinant protein), P11021 19-654 (other; other documents disagree on this pair)”, the Kd came out at 0.293 µM.

One may read the Kd as the equilibrium constant for the complex coming apart.
